We go through three molecules from patent publication US20250368744A1 (CONCEPT TO MEDICINE BIOTECH, published 2025).

Substitutions are numbered along the chain they refer to. Read-outs that look alike come from different tables or passages of the source.

The target in test [1] is T1, cyno CCR8 (cynomolgus, UniProt G7NYJ2 1-355).
T1 construct: whole, on cells; also called cynomolgus CCR8 protein
Put plainly: FACS (MFI-PE) on CHO-K1 cyno CCR8 cells; fitted value, the curve stays at the baseline. As for the experimental part:
(§1) Briefly, HEK293 hCCR8 cell line, CHO-K1 cyno CCR8 cell line or CHO-K1 hCCR4 cell line was first incubated with 5-fold serially diluted and 8 doses with the above 10 chimeric Abs and hlgG1 control starting from 100 nM at 4° C. for 30 mins. After washing by FACS buffer, PE Goat anti-Human IgG Fc Secondary Antibody (eBioscience™, Invitrogen) was added to each well and incubated at 4° C. for 30 mins. Samples were washed twice with FACS buffer. The mean florescence intensity (MFI) of PE was evaluated by MACSQuant Analyzer 16.

Another test addresses T2, human CCR4 (human, UniProt P51679 1-360).
T2 construct: whole, on cells; also called hCCR4
T2 sequence (looked up): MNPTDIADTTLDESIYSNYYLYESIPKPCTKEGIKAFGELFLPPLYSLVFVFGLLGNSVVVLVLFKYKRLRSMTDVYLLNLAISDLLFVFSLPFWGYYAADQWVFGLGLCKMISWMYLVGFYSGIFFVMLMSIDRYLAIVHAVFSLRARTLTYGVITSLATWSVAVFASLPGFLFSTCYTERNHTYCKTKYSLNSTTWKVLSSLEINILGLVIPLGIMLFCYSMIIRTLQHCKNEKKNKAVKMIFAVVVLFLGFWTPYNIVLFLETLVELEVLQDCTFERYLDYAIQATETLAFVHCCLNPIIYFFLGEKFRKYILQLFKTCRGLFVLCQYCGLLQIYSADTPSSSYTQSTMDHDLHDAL
Put plainly: FACS, CHO-K1 hCCR4 cells. The procedure: as §1
In general terms: Flow cytometry measures light scatter and fluorescence of single cells or particles in a stream.

For test [2], the target named is T3, human C-C motif chemokine receptor 8 (CCR8) (human, UniProt P51685 1-355). The test is described as follows: cell-based or functional assay.
Test [3] deals with T3, human C-C motif chemokine receptor 8 …. Put plainly: cell-based or functional assay. The source holds these as a separate data set.
Test [4] shares this target. Put plainly: FACS (MFI-PE) on HEK293 hCCR8 cells. The procedure: as §1
Test [5] shares this target. Put plainly: cell-based or functional assay. The source holds these as a separate data set.
For test [6] the target is unchanged. The test is described as follows: FACS (MFI-PE) on CHO-K1 hCCR8 cells.
In test [7] the target is T1, cyno CCR8. Put plainly: FACS (MFI-PE) on CHO-K1 cyno CCR8 cells; fitted value far outside the range tested (up to 100 nM).
The target of test [8] is T1, cyno CCR8. The test is described as follows: FACS (MFI-PE) on CHO-K1 cyno CCR8 cells; fitted value, the curve hardly leaves the baseline.

T1 sequence (G7NYJ2 entry or part of it): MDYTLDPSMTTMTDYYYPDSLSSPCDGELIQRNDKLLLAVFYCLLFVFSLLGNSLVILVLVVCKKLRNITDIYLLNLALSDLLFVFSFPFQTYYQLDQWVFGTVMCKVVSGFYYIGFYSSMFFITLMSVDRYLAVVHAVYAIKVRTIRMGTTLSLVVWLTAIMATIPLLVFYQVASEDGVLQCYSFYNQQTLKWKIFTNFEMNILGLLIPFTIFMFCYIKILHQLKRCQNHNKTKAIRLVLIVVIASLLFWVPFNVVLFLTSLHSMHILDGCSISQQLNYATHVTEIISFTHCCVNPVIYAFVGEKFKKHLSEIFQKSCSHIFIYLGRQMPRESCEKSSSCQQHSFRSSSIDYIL
T3 sequence (P51685 whole entry): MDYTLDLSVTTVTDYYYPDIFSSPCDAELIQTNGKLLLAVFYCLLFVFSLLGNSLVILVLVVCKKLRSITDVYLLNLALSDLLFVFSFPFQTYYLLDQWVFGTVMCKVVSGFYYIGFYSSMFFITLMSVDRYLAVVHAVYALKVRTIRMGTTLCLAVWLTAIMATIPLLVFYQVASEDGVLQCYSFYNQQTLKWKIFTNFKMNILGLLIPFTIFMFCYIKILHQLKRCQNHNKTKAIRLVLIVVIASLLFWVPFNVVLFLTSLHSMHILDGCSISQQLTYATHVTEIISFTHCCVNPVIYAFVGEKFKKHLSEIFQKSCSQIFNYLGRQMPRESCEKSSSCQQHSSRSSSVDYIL

B1: 163H9D5 (antibody, V domains shown)
VH: EVQLVESGGGLVQPKGSLKLSCAASGFSFNTYAMNWVRQAPGKGLKWVARIRTKSNNYATHYADSVKDRFTLSRDDSESMLYLQMNNLKTEDTAMYYCVGGGYGSSASNAMAYWGQGTSVTVSS
VL: DIVMTQAAPSVPVTPGESVSISCRSSKSLLHSNGNTYLYWFLQRPGQSPQLLIFRMSNLASGVPDRFSGSGSGTAFTLRISRVEAEDVGVYYCMQHLEYPFTFGSGTKLEIK
notes: tested as chimeric mAb
With B1, the EC50 with cyno CCR8 [1] came to 29.9 nM. In addition, the binding result with human CCR4 is “no binding (tested: 100 nM (highest concentration tested))”. Also, in [2], the “IC50, hCCL1-induced Ca2+ flux (stimulation %), Chem-1 hCCR8 cells [lower graph]” value is 5.77 nM and the “IC50, hCCL1-induced Ca2+ flux (stimulation %), Chem-1 hCCR8 cells [upper graph]” value amounted to 7.6 nM. Also, the “IC50, hCCL1-induced beta-arrestin recruitment (RLU), CHO-K1 hCCR8 cells” value in test [3] was 13.8 nM. Moreover, the EC50 in test [4] came out at 0.107 nM.

B2: 200C9B9-C1 (antibody, V domains shown)
VH: EVQLVESGGGLVQPKGSLKLSCAASGFSFNTYVMNWVRQAPGKGLNWVARIRTKSNNYATFYVDSVKDRFTISRDDSENMLYLQMNNLKIEDTAIYYCVSGTITRLGAGLDYWGQGTSVTVSS
VL: B1 VL with N33Q, F54Y, S105G
notes: also called 200C9B9 VH with 200C9B9 VL NG-QG
With B2, the “IC50, hCCL1-induced beta-arrestin recruitment (RLU), CHO-K1 hCCR8 cells” value in test [5] was 0.154 nM. For the same molecule, the EC50 is 0.399 nM in [6] and greater than 100 nM with cyno CCR8 [7].

B3: 195H8D10-C1 (antibody, V domains shown)
VH: B2 VH with E6G, S28N, N46E, F61Y, V63A, N79S, M80K, I90T, I95M, A108G
VL: B1 VL with S28R, N33Q, F54Y, S105G
notes: also called 195H8D10 VH with 195H8D10 VL NG-QG
Regarding B3, the 50% effective concentration (EC50) worked out at 68.1 nM with cyno CCR8 [8] and 0.29 nM in test [6].

A word on the EC50: it is the concentration at which the effect is half-maximal.
